From patent US20190241648A1 (STATEN BIOTECHNOLOGY B V, published 2019)
Ends that are not written are not given here.

How the values were obtained:
Assay in all cases: peptide microarray
ApoC3 peptide … R40C = target: T1, ApoC3 peptide … R40C (human, not fully specified (bridges); also: cyclic constrained)
T1 peptide: ACGWVTDGFSSLK
Procedure, shortened: (§1)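 Peptide microarrays of ApoC3-derived peptides incubated with antibody samples, then stained with goat anti-human IgG (Fc) DyLight680 (1:5000) and anti-HA DyLight800 (1:2000) control. Read-out by fluorescence scanning at intensities 7/7 (red/green); a secondary-only pre-stain checked background, HA frame peptides served as quality control.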

ApoC3 peptide … G41C = target: T2, ApoC3 peptide … G41C (human, also: cyclic constrained)
T2 peptide: ARCWVTDGFSSLK
Procedure, shortened: as §1

ApoC3 peptide … D45C = target: T3, ApoC3 peptide … D45C (human, not fully specified (bridges); also: cyclic constrained)
T3 peptide: ARGWVTCGFSSLK
Procedure, shortened: as §1

ApoC3 peptide … R40D = target: T4, ApoC3 peptide … R40D (human, not fully specified (bridges); also: cyclic constrained)
T4 peptide: ADGWVTDGFSSLK
Procedure, shortened: as §1

ApoC3 peptide … L50D = target: T5, ApoC3 peptide … L50D (human, not fully specified; cyclic constrained)
T5 peptide: ARGWVTDGFSSDK
Procedure, shortened: as §1

ApoC3 peptide … W42E = target: T6, ApoC3 peptide … W42E (human, not fully specified (bridges); also: cyclic constrained)
T6 peptide: ARGEVTDGFSSLK
Procedure, shortened: as §1

ApoC3 peptide … A39F = target: T7, ApoC3 peptide … A39F (human, cyclic constrained)
T7 peptide: FRGWVTDGFSSLK
Procedure, shortened: as §1

ApoC3 peptide … R40F = target: T8, ApoC3 peptide … R40F (human, not fully specified (bridges); also: cyclic constrained)
T8 peptide: AFGWVTDGFSSLK
Procedure, shortened: as §1

ApoC3 peptide … W42F = target: T9, ApoC3 peptide … W42F (human, not fully specified (bridges); also: cyclic constrained)
T9 peptide: ARGFVTDGFSSLK
Procedure, shortened: as §1

ApoC3 peptide … D45G = target: T10, ApoC3 peptide … D45G (human, not fully specified (bridges); also: cyclic constrained)
T10 peptide: ARGWVTGGFSSLK
Procedure, shortened: as §1

ApoC3 peptide … K51G = target: T11, ApoC3 peptide … K51G (human, thioether (positions not given here); also: cyclic constrained)
T11 peptide: ARGWVTDGFSSLG
Procedure, shortened: as §1

ApoC3 peptide … R40H = target: T12, ApoC3 peptide … R40H (human, not fully specified (bridges); also: cyclic constrained)
T12 peptide: AHGWVTDGFSSLK
Procedure, shortened: as §1

ApoC3 peptide … A39K = target: T13, ApoC3 peptide … A39K (human, cyclic constrained)
T13 peptide: KRGWVTDGFSSLK
Procedure, shortened: as §1

ApoC3 peptide … G41K = target: T14, ApoC3 peptide … G41K (human, also: cyclic constrained)
T14 peptide: ARKWVTDGFSSLK
Procedure, shortened: as §1

ApoC3 peptide … V43K = target: T15, ApoC3 peptide … V43K (human, not fully specified; cyclic constrained)
T15 peptide: ARGWKTDGFSSLK
Procedure, shortened: as §1

ApoC3 peptide … G46K = target: T16, ApoC3 peptide … G46K (human, not fully specified (bridges); also: cyclic constrained)
T16 peptide: ARGWVTDKFSSLK
Procedure, shortened: as §1

ApoC3 peptide … S49L = target: T17, ApoC3 peptide … S49L (human, cyclic constrained)
T17 peptide: ARGWVTDGFSLLK
Procedure, shortened: as §1

ApoC3 peptide … G41N = target: T18, ApoC3 peptide … G41N (human, also: cyclic constrained)
T18 peptide: ARNWVTDGFSSLK
Procedure, shortened: as §1

ApoC3 peptide … V43N = target: T19, ApoC3 peptide … V43N (human, not fully specified; cyclic constrained)
T19 peptide: ARGWNTDGFSSLK
Procedure, shortened: as §1

ApoC3 peptide … L50N = target: T20, ApoC3 peptide … L50N (human, not fully specified; cyclic constrained)
T20 peptide: ARGWVTDGFSSNK
Procedure, shortened: as §1

ApoC3 peptide … A39P = target: T21, ApoC3 peptide … A39P (human, cyclic constrained)
T21 peptide: PRGWVTDGFSSLK
Procedure, shortened: as §1

ApoC3 peptide … W42P = target: T22, ApoC3 peptide … W42P (human, not fully specified (bridges); also: cyclic constrained)
T22 peptide: ARGPVTDGFSSLK
Procedure, shortened: as §1

ApoC3 peptide … R40Q = target: T23, ApoC3 peptide … R40Q (human, not fully specified (bridges); also: cyclic constrained)
T23 peptide: AQGWVTDGFSSLK
Procedure, shortened: as §1

ApoC3 peptide … V43R = target: T24, ApoC3 peptide … V43R (human, not fully specified (bridges); also: cyclic constrained)
T24 peptide: ARGWRTDGFSSLK
Procedure, shortened: as §1

ApoC3 peptide … G46R = target: T25, ApoC3 peptide … G46R (human, thioether (positions not given here); also: cyclic constrained)
T25 peptide: ARGWVTDRFSSLK
Procedure, shortened: as §1

ApoC3 peptide … S48R = target: T26, ApoC3 peptide … S48R (human, not fully specified (bridges); also: cyclic constrained)
T26 peptide: ARGWVTDGFRSLK
Procedure, shortened: as §1

ApoC3 peptide … G46S = target: T27, ApoC3 peptide … G46S (human, thioether (positions not given here); also: cyclic constrained)
T27 peptide: ARGWVTDSFSSLK
Procedure, shortened: as §1

ApoC3 peptide … W42T = target: T28, ApoC3 peptide … W42T (human, not fully specified (bridges); also: cyclic constrained)
T28 peptide: ARGTVTDGFSSLK
Procedure, shortened: as §1

ApoC3 peptide … T44W = target: T29, ApoC3 peptide … T44W (human, not fully specified (bridges); also: cyclic constrained)
T29 peptide: ARGWVWDGFSSLK
Procedure, shortened: as §1

ApoC3 peptide … G46W = target: T30, ApoC3 peptide … G46W (human, thioether (positions not given here); also: cyclic constrained)
T30 peptide: ARGWVTDWFSSLK
Procedure, shortened: as §1

B1: anti-ApoC3 antibody 14C7 (antibody, V domains shown)
VH: QVQVQESGPGLVKPSQTLSLTCTVSGGSITTNSYYWSWIRQPPGKGLEWMGAIDYSGDTYYSPSLKSRTSISRDTSKNQFTLQLTSVTPEDTAVYYCVSRIPTGEYWGQGTQVTVSS
VL: QTVVTQEPSLSVSPGGTVTLTCGLNSGSVTSSNYPDWYQQTPGQAPRLLIYNTNSRHSGVPSRFSGSISGNKAALTITGAQPEDEADYYCALYMGSDSVVFGGGTHLTVL
notes: it was detected with goat anti-human IgG (Fc); also called mAb 14C7; llama antibody 14C7
% of binding to wild-type peptide (ApoC3 peptide … R40C): 62.3% | % of binding to wild-type peptide (ApoC3 peptide … G41C): 14.8% | % of binding to wild-type peptide (ApoC3 peptide … D45C): 11.2% | % of binding to wild-type peptide (ApoC3 peptide … R40D): 50% | % of binding to wild-type peptide (ApoC3 peptide … L50D): 0% | % of binding to wild-type peptide (ApoC3 peptide … W42E): 98.5% | % of binding to wild-type peptide (ApoC3 peptide … A39F): 78.2% | % of binding to wild-type peptide (ApoC3 peptide … R40F): 70.8% | % of binding to wild-type peptide (ApoC3 peptide … W42F): 242% | % of binding to wild-type peptide (ApoC3 peptide … D45G): 2.16% | % of binding to wild-type peptide (ApoC3 peptide … K51G): 5.77% | % of binding to wild-type peptide (ApoC3 peptide … R40H): 44.4% | % of binding to wild-type peptide (ApoC3 peptide … A39K): 72.9% | % of binding to wild-type peptide (ApoC3 peptide … G41K): 18% | % of binding to wild-type peptide (ApoC3 peptide … V43K): 25.4% | % of binding to wild-type peptide (ApoC3 peptide … G46K): 0.24% | % of binding to wild-type peptide (ApoC3 peptide … S49L): 0% | % of binding to wild-type peptide (ApoC3 peptide … G41N): 27.5% | % of binding to wild-type peptide (ApoC3 peptide … V43N): 1.36% | % of binding to wild-type peptide (ApoC3 peptide … L50N): 0% | % of binding to wild-type peptide (ApoC3 peptide … A39P): 166% | % of binding to wild-type peptide (ApoC3 peptide … W42P): 18.6% | % of binding to wild-type peptide (ApoC3 peptide … R40Q): 85.8% | % of binding to wild-type peptide (ApoC3 peptide … V43R): 15.1% | % of binding to wild-type peptide (ApoC3 peptide … G46R): 0.3% | % of binding to wild-type peptide (ApoC3 peptide … S48R): 34.5% | % of binding to wild-type peptide (ApoC3 peptide … G46S): 0% | % of binding to wild-type peptide (ApoC3 peptide … W42T): 186% | % of binding to wild-type peptide (ApoC3 peptide … T44W): 0% | % of binding to wild-type peptide (ApoC3 peptide … G46W): 0%
